From FireProtDB (doi:10.1016/0022-2836(91)90566-o)

B1: DNA-Binding protein, P69542 (parent)
chain: MIKVEIKPSQAQFTTRSGVSRQGKPYSLNEQLCYVDLGNEYPVLVKITLDEGQPAYAPGLYTVHLSSFKVGQFGSLMIDRLRLVPAK

Variants of: B1
Conditions: Enterobacteria phage fd; pH 7; 25 °C; GdnHCl; CD; MOPS 50 mM; NaCl 100 mM; reversible: yes; structure 1VQB; whole UniProt chain shown

Variant | ddG of mutation (higher = less stable) [kcal/mol] | denaturant m value [kcal/mol/M] | denaturant midpoint (higher = more stable) [M] | unfolding free energy [kcal/mol]
I47T | 7.4 | 4.9 | 0.9 | 1.6
D36C | 2 | 3.5 | 2 | 7
D36N | 1 | 4.2 | 2.2 | 8
F68L | 4.2 | 3.4 | 1.4 | 4.8
D50H | 1.5 | 3.8 | 2.1 | 7.5
V70C | 3.1 | 4.4 | 1.7 | 5.9
V70P | 5 | 4.4 | 1.3 | 4
E30M | -0.7 | 3.7 | 2.78 | 9.7
K69M | -0.2 | 3.1 | 2.7 | 9.2
C33S | 4.2 | 4 | 1.4 | 4.8
